US20260285997 (published 2026)
Values joined by “and” are separate entries in the source; they are usually repeats but may differ in a detail not shown here. Equal values may be shown once. Read-outs that look alike come from different tables or passages of the source.

T1: CD206 (human, UniProt P22897)
T1 chain: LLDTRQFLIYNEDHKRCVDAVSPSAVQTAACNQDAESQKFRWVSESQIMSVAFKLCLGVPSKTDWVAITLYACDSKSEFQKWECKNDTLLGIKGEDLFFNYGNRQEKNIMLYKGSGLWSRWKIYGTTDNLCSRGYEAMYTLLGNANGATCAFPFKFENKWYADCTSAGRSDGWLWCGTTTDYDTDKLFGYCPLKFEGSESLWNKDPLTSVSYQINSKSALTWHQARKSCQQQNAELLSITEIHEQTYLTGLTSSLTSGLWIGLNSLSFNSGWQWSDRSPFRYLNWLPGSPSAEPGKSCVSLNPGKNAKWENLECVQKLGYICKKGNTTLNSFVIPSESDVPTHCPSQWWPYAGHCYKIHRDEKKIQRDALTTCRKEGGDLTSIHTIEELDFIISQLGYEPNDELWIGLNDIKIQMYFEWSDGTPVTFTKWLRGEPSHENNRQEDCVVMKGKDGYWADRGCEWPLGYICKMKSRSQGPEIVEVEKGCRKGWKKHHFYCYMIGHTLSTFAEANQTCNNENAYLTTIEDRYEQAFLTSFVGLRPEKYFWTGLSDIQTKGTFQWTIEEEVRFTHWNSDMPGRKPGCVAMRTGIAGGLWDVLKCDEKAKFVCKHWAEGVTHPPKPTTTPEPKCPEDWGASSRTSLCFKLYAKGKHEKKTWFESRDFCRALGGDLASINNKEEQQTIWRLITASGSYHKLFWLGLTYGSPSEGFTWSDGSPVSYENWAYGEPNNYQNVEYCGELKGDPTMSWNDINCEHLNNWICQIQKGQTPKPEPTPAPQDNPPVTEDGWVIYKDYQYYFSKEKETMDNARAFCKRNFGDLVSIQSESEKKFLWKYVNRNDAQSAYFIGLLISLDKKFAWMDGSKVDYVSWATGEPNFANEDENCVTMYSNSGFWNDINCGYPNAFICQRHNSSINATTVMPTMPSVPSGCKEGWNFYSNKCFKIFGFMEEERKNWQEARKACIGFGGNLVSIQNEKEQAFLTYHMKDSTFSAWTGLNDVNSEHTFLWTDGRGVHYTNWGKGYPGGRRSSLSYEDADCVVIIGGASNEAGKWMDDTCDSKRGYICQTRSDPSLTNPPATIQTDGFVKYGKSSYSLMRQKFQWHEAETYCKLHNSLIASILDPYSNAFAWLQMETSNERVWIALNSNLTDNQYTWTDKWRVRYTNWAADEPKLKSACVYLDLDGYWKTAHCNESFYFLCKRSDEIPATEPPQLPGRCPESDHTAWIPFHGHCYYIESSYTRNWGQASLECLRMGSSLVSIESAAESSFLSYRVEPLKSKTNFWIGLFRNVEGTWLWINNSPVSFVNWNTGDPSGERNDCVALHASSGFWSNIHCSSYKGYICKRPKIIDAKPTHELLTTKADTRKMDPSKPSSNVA

B1: BEAT 1a1 CD40 arm (antibody, V domains shown)
VH: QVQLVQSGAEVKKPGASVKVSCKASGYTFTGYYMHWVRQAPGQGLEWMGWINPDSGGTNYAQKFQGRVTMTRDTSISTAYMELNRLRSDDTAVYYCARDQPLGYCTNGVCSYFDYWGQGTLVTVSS
VL: DIQMTQSPSSVSASVGDRVTITCRASQGIYSWLAWYQQKPGKAPNLLIYTASTLQSGVPSRFSGSGSGTDFTLTISSLQPEDFATYYCQQANIFPLTFGGGTKVEIK
B2: BEAT 1a6 CD40 arm (antibody, V domains shown)
VH: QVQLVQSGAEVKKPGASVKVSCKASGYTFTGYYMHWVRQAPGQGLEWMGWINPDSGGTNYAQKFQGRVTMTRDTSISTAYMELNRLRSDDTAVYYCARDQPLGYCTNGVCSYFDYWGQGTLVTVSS
VL: B1 VL
B3: BEAT 1a5 CD40 arm (antibody, V domains shown)
VH: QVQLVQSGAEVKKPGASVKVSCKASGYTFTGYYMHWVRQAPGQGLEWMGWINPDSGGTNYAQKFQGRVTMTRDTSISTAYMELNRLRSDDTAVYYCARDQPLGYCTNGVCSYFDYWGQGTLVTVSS
VL: B1 VL
B4: BEAT 1a3 CD40 arm (antibody, V domains shown)
VH: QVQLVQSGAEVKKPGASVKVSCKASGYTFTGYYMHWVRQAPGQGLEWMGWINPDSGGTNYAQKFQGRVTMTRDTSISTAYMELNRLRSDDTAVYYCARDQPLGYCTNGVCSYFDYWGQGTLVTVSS
VL: B1 VL
B5: BEAT 1a4 CD40 arm (antibody, V domains shown)
VH: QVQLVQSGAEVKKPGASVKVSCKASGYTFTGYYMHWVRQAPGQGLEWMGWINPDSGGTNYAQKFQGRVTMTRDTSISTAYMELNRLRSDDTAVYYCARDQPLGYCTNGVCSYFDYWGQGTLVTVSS
VL: B1 VL
B6: BEAT 1b2 CD40 arm (antibody, V domains shown)
VH: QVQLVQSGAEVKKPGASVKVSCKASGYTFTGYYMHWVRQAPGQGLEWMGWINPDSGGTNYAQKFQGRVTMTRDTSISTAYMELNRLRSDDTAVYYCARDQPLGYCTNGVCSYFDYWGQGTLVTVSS
VL: B1 VL
B7: BEAT 1a2 CD40 arm (antibody, V domains shown)
VH: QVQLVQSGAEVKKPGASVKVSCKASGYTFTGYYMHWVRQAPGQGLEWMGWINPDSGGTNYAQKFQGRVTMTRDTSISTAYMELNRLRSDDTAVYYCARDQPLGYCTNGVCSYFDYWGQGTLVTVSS
VL: B1 VL
B8: BEAT 1b1 CD40 arm (antibody, V domains shown)
VH: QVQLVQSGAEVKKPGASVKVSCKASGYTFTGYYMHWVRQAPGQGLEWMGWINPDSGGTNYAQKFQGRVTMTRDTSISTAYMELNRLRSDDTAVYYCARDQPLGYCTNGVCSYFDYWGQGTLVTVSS
VL: B1 VL
B9: anti-CD40 IgG2 (antibody, V domains shown)
VH: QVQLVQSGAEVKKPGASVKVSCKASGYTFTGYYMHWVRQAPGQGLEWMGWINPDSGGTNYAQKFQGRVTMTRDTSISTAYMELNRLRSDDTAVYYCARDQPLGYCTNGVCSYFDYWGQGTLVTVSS
VL: B1 VL
B10: BEAT 1b4 CD40 arm (antibody, V domains shown)
VH: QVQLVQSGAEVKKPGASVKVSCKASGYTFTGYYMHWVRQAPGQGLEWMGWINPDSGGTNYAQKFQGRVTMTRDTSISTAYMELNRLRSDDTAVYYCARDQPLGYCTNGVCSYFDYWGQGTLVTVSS
VL: B1 VL
B11: BEAT 2a7 FLAG arm (antibody)
chain: QVQLVQSGAEVKKPGASVKVSCKASGYSFTTYTIHWVRQAPGQGLEWIGYINPSSGYAAYNQKFQGRVTLTADKSTSTAYMELSSLRSEDTAVYYCAREKFYGYDYWGQGTTVTVSSGGGGSGGGGSGGGGSGGGGASDVVMTQSPDSLAVSLGERATINCKSSQSIVHRNGNTYLEWYQQKPGQPPKLLIYKVSNRFSGVPDRFSGSGSGTDFTLTISSLQAEDVAVYYCFQGSHVPYTFGGGTKLEIK
B12: BEAT 1a5 FLAG arm (antibody)
chain: B11 chain
B13: BEAT 1a7 FLAG arm (antibody)
chain: B11 chain
B14: BEAT 1a6 FLAG arm (antibody)
chain: B11 chain
B15: BEAT 1a8 FLAG arm (antibody)
chain: B11 chain
B16: BEAT 1a1 FLAG arm (antibody)
chain: DVVMTQSPDSLAVSLGERATINCKSSQSIVHRNGNTYLEWYQQKPGQPPKLLIYKVSNRFSGVPDRFSGSGSGTDFTLTISSLQAEDVAVYYCFQGSHVPYTFGGGTKLEIKGGGGSGGGGSGGGGSQVQLVQSGAEVKKPGASVKVSCKASGYSFTTYTIHWVRQAPGQGLEWIGYINPSSGYAAYNQKFQGRVTLTADKSTSTAYMELSSLRSEDTAVYYCAREKFYGYDYWGQGTTVTVSS
B17: BEAT 1a4 FLAG arm (antibody)
chain: B16 chain
B18: BEAT 1a3 FLAG arm (antibody)
chain: B16 chain
B19: BEAT 1a2 FLAG arm (antibody)
chain: B16 chain
B20: BEAT 2b1 CD206 arm (antibody, V domains shown)
VH: EVQLVQSGAEVKKPGESLRISCKGSGDSFTTYWIGWVRQMPGKGLEWMGIIYPGDSDTIYSPSFQGQVTISADKSISTAYLQWSSLKASDTAMYYCTRGDRGVDYWGQGTLVTVSS
VL: DIQMTQSPSSLSASVGDRVTITCRASQGISRWLAWYQQKPEKAPKSLIYAASSLQSGVPSRFSGSGSGTDFTLTISGLQPEDFATYYCQQYNSYPRTFGQGTKVEIK
B21: BEAT 2a2 CD206 arm (antibody, V domains shown)
VH: B20 VH
VL: B20 VL
B22: BEAT 2b3 CD206 arm (antibody, V domains shown)
VH: B20 VH
VL: B20 VL
B23: BEAT 2b2 CD206 arm (antibody, V domains shown)
VH: B20 VH
VL: B20 VL
B24: BEAT 2a5 CD206 arm (antibody, V domains shown)
VH: B20 VH
VL: B20 VL
B25: BEAT 2b4 CD206 arm (antibody, V domains shown)
VH: B20 VH
VL: B20 VL
B26: anti-CD206 IgG1 (antibody, V domains shown)
VH: B20 VH
VL: B20 VL
B27: BEAT 2a4 CD206 arm (antibody, V domains shown)
VH: B20 VH
VL: B20 VL
B28: BEAT 2a3 CD206 arm (antibody, V domains shown)
VH: B20 VH
VL: B20 VL
B29: BEAT 2a6 CD206 arm (antibody, V domains shown)
VH: B20 VH
VL: B20 VL
B30: BEAT 2a8 CD206 arm (antibody, V domains shown)
VH: B20 VH
VL: B20 VL
B31: BEAT 2a7 CD206 arm (antibody, V domains shown)
VH: B20 VH
VL: B20 VL

Assays:
Test in all cases: SPR
CD40 = CD40 (human, UniProt P25942)
FLAG-BAP [1] = target: T2, FLAG-BAP (FLAG tag fused to bacterial alkaline phosphatase)
FLAG-BAP [2] = target: T2, FLAG-BAP; remark: listed apart in the source
CD206 = target: T1, CD206

Chain of CD40 (P25942 21-193): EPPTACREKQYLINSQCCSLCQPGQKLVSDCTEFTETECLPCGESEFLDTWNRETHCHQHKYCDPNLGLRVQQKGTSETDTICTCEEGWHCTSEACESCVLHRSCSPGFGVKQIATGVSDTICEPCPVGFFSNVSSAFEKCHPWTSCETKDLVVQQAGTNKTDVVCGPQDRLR

Binder	Kd (CD40)	Kd (CD206)	also measured
B1	0.574 nM and 0.572 nM and 0.585 nM		
B2	0.371 nM and 0.394 nM		
B3	0.988 nM and 0.986 nM		
B4	0.957 nM and 0.975 nM		
B5	0.444 nM and 0.391 nM and 0.467 nM		
B6	0.444 nM and 0.295 nM		
B7	0.471 nM and 0.534 nM		
B8	0.379 nM and 0.62 nM		
B9	0.535 nM and 0.7 nM		
B10	0.487 nM and 0.496 nM		
B11			Kd (FLAG-BAP [1]): 6.59 nM and 9.46 nM
B12			Kd (FLAG-BAP [2]): 21.9 nM and 15.4 nM
B13			Kd (FLAG-BAP [2]): 10.9 nM and 13.5 nM and 7.81 nM
B14			Kd (FLAG-BAP [2]): 15.5 nM and 27.4 nM
B15			Kd (FLAG-BAP [2]): 10.1 nM and 8.85 nM
B16			Kd (FLAG-BAP [2]): 0.671 nM and 0.798 nM

Binder	Kd (CD40)	Kd (CD206)	also measured
B17			Kd (FLAG-BAP [2]): 6.9 nM and 5.04 nM
B18			Kd (FLAG-BAP [2]): 1.22 nM and 1.24 nM and 1.65 nM
B19			Kd (FLAG-BAP [2]): 1.26 nM and 1.99 nM
B20		27.8 nM and 47 nM	
B21		11.8 nM and 9.48 nM	
B22		20.1 nM and 21.3 nM	
B23		12.7 nM and 13.4 nM	
B24		30.1 nM and 32.7 nM	
B25		14 nM and 12.4 nM	
B26		11.2 nM and 10.3 nM and 10.5 nM and 11.1 nM	
B27		10.3 nM and 11.9 nM	
B28		22.2 nM and 23.6 nM	
B29		10.3 nM and 10.4 nM	
B30		15.8 nM and 15.6 nM	
B31		15.9 nM and 14.3 nM	
